The record followed here is US9389182B2 (University of Southern California, priority 2011, dated 2016).

Data set [1] deals with T1, BSA (Bos taurus, UniProt P02769).
T1 construct: purchased thermo-Fisher BP1605-100
The experiment in a line: Blocking of free carboxyl groups on BSA before AMC labeling (SDS-PAGE, native gels, gel fluorescence). The arrangement: species or system bovine. The following applies: 50 mg BSA, 1 h. Here is the method: FIG. 2. […] Values are means±SE, n=3. […] Values are means±SE, n=3. […] A silver stain was later performed. (D) N-(3-Dimethylamineopropyl)-N′-ethylcarbodiimide (1 ng/ml to 100 μg/ml) which blocks free carboxyl groups, was incubated with 50 mg of BSA for 1 hr. BSA was extensively dialyzed then prepared as in panel (C). Increasing concentrations of N-(3-Dimethylamineopropyl)-N′-ethylcarbodiimide, caused a progressive decrease in BSA's electrophoretic mobility, and loss of fluorescence at 66 kDa; a representative gel is shown to the left of the panel, and fluorescence is quantified in the graph to the right; […]
For SDS Page gels, samples were mixed with 25% Nupage loading Dye (Invitrogen, Carlsbad, Calif., USA, catalogue#NP0007) containing 5% 2-mercaptoethanol, Samples were boiled for 3 minutes then added to a 12% Tris-glycine SDS page gel. […] In experiments where gel fluorescence was analyzed, gels were placed in a chamber and exposed to an excitation wavelength of 365 nm. […]

The target of data set [2] is T1, BSA. Briefly: Blocking of exposed amine groups on BSA before AMC labeling. Also noted: species or system bovine. The conditions noted are these: 0.5-50 mM. From the text: (§1) In some experiments samples were pre-treated with either N-(3-Dimethylaminopropyl)-N′-ethylcarbodiimide hydrochloride (Sigma-Aldrich, MO, USA, catalogue#E6383-1G) to block free protein carboxyl groups, with sulfo-N-hydroxysulfosuccinimide-acetate (Pierce, Rockford, Ill., USA, catalogue #26777) to block free protein amino groups, or with tryptamine (Sigma-Aldrich, MO, USA, catalogue#193747-10G) to disrupt potential non-covalent interactions in protein hydrophobic pockets.
To test whether exposed amine groups on the protein might react with the carboxyl group on the fluorophore, we used 0.5-50 mM sulfo-NHS-acetate was used to block exposed amine groups on BSA. […] This implies that the complex formed between AMC and BSA is independent of exposed protein amine groups.

The target of data set [3] is T1, BSA. The experiment in a line: Tryptamine competition for non-covalent AMC binding sites on BSA. Also noted: species or system bovine. The conditions noted are these: 100 fold excess.
Excerpt: as §1
Another possibility was that AMC might be sequestered in protein hydrophobic pockets by non-covalent interactions. […] The ability of the BSA/AMC complex to function as a substrate for proteolysis was also tested.

Another data set concerns Trypsin. The experiment in a line: Proteolysis of AMC-labeled proteins by trypsin, fluorescence assay (AMC release). Type of data set: biochemical. The following applies: for substrate for proteolysis by trypsin, release of fluorescent AMC: AMC-labeled protein 10 μg/ml, 10 μM trypsin. Here is the method:
FIG. 3. Proteolysis of AMC-labeled Proteins by Trypsin. […] Values are means±SE's, n=3. […] All assay conditions (including trypsin concentration) were identical to those in A, and each substrate protein was used at a final concentration of 10 μg/ml. […] Values are means±SE's, n=3;
FIG. 4. Protease and Substrate Titration, and Particle Size of Proteolytic Degradation Products. […] Values are means±SE's, n=4, for which the fluorescence of controls was subtracted. […] Background fluorescence or radioactivity were measured in the absence of protease (proteolysis buffer alone), and proteolysis was measured by increased fluorescence or acid-soluble radioactivity after incubation with either 10 μM Trypsin, 1 μg/ml purified 20S proteosome, or 150 μg/ml MEF cell lysate. Percent degradation of Hb-AMC is reported as the percentage of total fluorescence that could be released from Hb-AMC after exhaustive proteolytic digestion (not shown), whereas percent degradation of [3H]Hb is reported as the percent of total (initial) radioactive counts released into TCA-soluble form by proteolysis. All values are means±SE's, n=3;

The next data set addresses T2, purified 20S proteasome (Homo sapiens, UniProt P28072+P28074+Q99436).
T2 construct: purchased Biomol PW8720-0050
The experiment in a line: Degradation of native and oxidized AMC-labeled proteins by purified 20S proteasome. Type of data set: biochemical. The conditions noted are these: for increase in susceptibility to proteasomal degradation: following mild oxidation with H2O2 (1.0 mM); for substrate for the purified proteasome: unoxidized form. Here is the method: (§2) FIG. 7. Proteolytic Susceptibility of Modified AMC-labeled Proteins. (A) The capacity of 20S proteasome to degrade both the native and oxidized forms of Hb-AMC and BSA-AMC was measured. For both assays, 1 μg/ml of purified 20S proteasome was combined with 10 μg/ml of Hb-AMC, Hbox-AMC, BSA-AMC, or BSAox-AMC and incubated for 4 hr at 37° C. Protein degradation was then measured as per FIG. 4. Hbox-AMC, and BSAox were prepared by treating Hb-AMC and BSA-AMC with 1.0 mM H2O2 followed by extensive dialysis. (B) The Capacity of MEF cell lysates to degrade various modified forms of Hb-AMC was measured. Hb-AMC was modified by incubation with dilute HCl at pH 4, 10% 2-mercaptoethanol, 70% methanol, 1 mM peroxynitrite, or 1 mM H2O2, or was boiled at 100° C. for 60 minutes, or subjected to freeze-thawing at −80° C. The substrates were then extensively dialyzed and incubated with 150 μg/ml of MEF cell lysates for 4 hr. In both panels, values are means±SE's, n=3.

Data set [4] can be described thus: pH stability of the Hb-AMC complex. The data set is classed as physicochemical. The following applies: pH 1-12, 4 hr, read after readjusting to pH 7.8. Here is the method: The stability of protein-AMC adducts over the same broad range of pH was determined. […] The viability of protein-AMC complexes as substrates for proteases was tested with widely different pH optima.

In the next data set the target is pepsin (Sus scrofa, UniProt P00791). Briefly: Proteolysis of Hb-AMC by pepsin (AMC release). The conditions noted are these: pH 2, 4 hr at 37° C.
pepsin, sequence (P00791 60-385): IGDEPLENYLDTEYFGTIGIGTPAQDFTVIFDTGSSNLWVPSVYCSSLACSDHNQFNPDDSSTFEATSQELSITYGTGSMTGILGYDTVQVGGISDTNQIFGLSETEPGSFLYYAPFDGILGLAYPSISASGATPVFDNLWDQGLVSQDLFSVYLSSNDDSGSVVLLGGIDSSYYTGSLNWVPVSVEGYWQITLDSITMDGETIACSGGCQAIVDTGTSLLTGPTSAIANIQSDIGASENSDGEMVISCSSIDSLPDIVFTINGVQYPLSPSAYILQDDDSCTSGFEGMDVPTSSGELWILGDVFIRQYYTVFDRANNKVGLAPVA
Data set [5] in a line: Stability of Hb-AMC after frozen storage or denaturation (background release of free AMC). The data set is classed as physicochemical. Here is the method:
FIG. 5. Stability of AMC-labeled Hemoglobin After Frozen Storage or Denaturation. (A) Hb-AMC was stored at −20° C. for up to 21 weeks. […] Release of free AMC from the Hb-AMC complex (background fluorescence) was then measured in comparison with control (untreated Hb-AMC). In all three panels, values are means±SE's, n=3;
The stability of AMC-labeled substrates, the resistance of the AMC-protein linkage to various treatments, and the reproducibility of proteolytic assays after prolonged storage are important concerns in weighing the usefulness of the technique of various embodiments of the present invention.
Embodiments of the present invention provide a new way to label proteins for studies of oxidation-induced changes in proteolytic susceptibility. In addition to oxidants, proteolytic substrates are often subjected to various other modifying or denaturing conditions, to test for effects on proteolytic susceptibility, therefore it is important to test the stability of AMC-labeled substrates over a range of harsh conditions.

Another data set has as its system MEF cell lysates. Briefly: Degradation of modified Hb-AMC by MEF cell lysates. Type of data set: biochemical, murine. The conditions noted are these: oxidative modification by H2O2 or peroxynitrite. Here is the method: as §2, with “In both panels, values are means±SE's, n=3.” left out
Murine embryonic fibroblasts (MEF) from ATCC (Manassas, Va., USA, catalogue CRL-2214) were grown in Dulbecco's Modified Eagle's Medium (DMEM, Mediatech, Manassas, Va., catalogue #10-013-CV) supplemented with 10% Fetal Bovine Serum (Hyclone, Logan, Utah, catalog #SH30070.03). […] The lysates were then centrifuged at 10,000 g for 10 minutes, after which the supernatants were retained (the pellets discarded) and protein content was determined by BCA assay.

The next data set has as its target T3, proteinase K (Parengyodontium album, UniProt P06873).
T3 construct: purchased Oncor S4508
The experiment in a line: Proteolysis of Hb-AMC by proteinase K (AMC release). The data set is classed as biochemical. The conditions noted are these: pH 11, 4 hr at 37° C.

Another data set has as its target chymotrypsin (Bos taurus, UniProt P00766). The experiment in a line: Proteolysis of Hb-AMC by chymotrypsin (AMC release). The conditions noted are these: pH 7.8, 4 hr at 37° C.
Where [6] appears, read: stored at −20° C., repeated trials over 150 days.

Some results are limits rather than exact numbers.

T1 sequence (P02769 25-607): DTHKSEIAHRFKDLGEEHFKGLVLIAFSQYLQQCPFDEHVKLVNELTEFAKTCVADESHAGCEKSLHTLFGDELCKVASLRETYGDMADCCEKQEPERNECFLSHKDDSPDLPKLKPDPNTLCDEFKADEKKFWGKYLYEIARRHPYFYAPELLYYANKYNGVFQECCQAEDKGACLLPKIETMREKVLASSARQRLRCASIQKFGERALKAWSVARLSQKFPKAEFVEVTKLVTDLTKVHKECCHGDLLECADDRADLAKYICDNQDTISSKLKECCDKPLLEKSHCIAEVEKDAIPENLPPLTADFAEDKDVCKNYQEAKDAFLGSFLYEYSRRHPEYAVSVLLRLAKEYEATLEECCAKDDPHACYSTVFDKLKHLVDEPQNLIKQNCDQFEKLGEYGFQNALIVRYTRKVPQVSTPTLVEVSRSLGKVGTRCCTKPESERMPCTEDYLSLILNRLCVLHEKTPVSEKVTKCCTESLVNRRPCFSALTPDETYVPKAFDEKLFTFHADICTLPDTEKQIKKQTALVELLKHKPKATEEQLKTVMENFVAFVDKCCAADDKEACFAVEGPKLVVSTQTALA
T3 sequence (P06873 106-384): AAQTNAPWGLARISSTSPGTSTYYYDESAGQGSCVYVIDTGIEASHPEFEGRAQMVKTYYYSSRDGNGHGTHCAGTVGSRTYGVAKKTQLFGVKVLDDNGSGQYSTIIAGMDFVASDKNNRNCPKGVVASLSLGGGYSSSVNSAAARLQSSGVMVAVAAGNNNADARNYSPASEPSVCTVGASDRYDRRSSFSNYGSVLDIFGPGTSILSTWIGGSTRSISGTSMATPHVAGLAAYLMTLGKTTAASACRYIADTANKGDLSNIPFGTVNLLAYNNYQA
Experimental for chymotrypsin: (§3) In each experiment, pH was adjusted appropriately for the proteinase studied, and samples were incubated at 37° C. for 4 hours.
Experimental for pepsin: as §3

Take `CCN=C=NCCCN(C)C.Cl` [N-(3-Dimethylaminopropyl)-N′-ethylcarbodiimide hydrochloride]: on BSA [1], the “protein carboxyl-group blocking, decreased electrophoretic mobility” value is “dose-dependent protein carboxyl-group blocking”. Further, on BSA [1] (then AMC and NaCNBH3), the “formation of BSA-AMC adducts, fluorescent band at 66 kDa” value is “prevented the formation of BSA-AMC adducts”.

On to `CC(=O)ON1C(=O)CC(S(=O)(=O)O)C1=O` (centres unmarked) [sulfo-NHS-acetate, sulfo-N-hydroxysulfosuccinimide-acetate], for which, on BSA [2], the “change in the fluorescence of the BSA-AMC complex” value is given as “no significant change” and the “free amine groups on BSA blocked” value was 80%.

As for `NCCc1c[nH]c2ccccc12` [tryptamine], on BSA [3], the “association between AMC and BSA blocked” value was “above 30%”; the “effect on effectiveness of BSA as a proteolytic substrate” value is recorded as “minimal effects”.

Turning to “BSA-AMC: AMC-labeled bovine serum albumin”, the “substrate for proteolysis by trypsin, release of fluorescent AMC” value (“substrate for proteolysis by trypsin” for short) in the data set on Trypsin was “effective and sensitive substrates”. For the same molecule, in the data set with purified 20S proteasome, the “increase in susceptibility to proteasomal degradation” value is “four” and the “substrate for the purified proteasome” value is “rather poor substrates”.

Take “Hb-AMC: AMC-labeled hemoglobin, made by reductive labeling with AMC and sodium cyanoborohydride”: the “decrease in stability of the complex” value in data set [4] is less than 0.2%. Further, the substrate for proteolysis entry with pepsin is listed as “excellent substrate”; in the data set with proteinase K, “excellent substrate”; in the data set with Trypsin (pH 7.8, 4 hr at 37° C.), “excellent substrate”; with chymotrypsin, “excellent substrate”. The “stability of the complex to modifying or denaturing conditions” value in data set [5] (1 mM H2O2, 1 mM peroxynitrite, dilute HCl pH 4, 10% 2-mercaptoethanol, freeze-thawing at −80° C., or 50% methanol) was “almost completely stable”. Also, the “breakdown of the Hb-AMC complex” value in data set [5] (boiling (100° C.) for 60 minutes) is listed as 3.1%. In addition, the “effect of repeated freeze thaw cycles on stability of the complex (background release of free AMC)” value in [5] (repeated −20° C. freeze-thaw cycles) was “did not significantly affect the stability”. For the same molecule, the “variation of background AMC release on storage” value in data set [5] (setting [6]) is given as “less than 15%”. The “degradation by MEF cell extracts versus unmodified (control) Hb-AMC” value in the data set with MEF cell lysates is on record as “significantly increased”. The “substrate for proteolysis by trypsin” value with Trypsin is “effective and sensitive substrates”. Moreover, the “increase in AMC liberation after trypsin digestion” value with Trypsin (Hb labeled by full procedure with AMC and NaCNBH3) is reported as 80 fold. Further, the “increase in AMC liberation following incubation with trypsin” value with Trypsin (Hb reacted with AMC alone, no NaCNBH3) is reported as “six”. Further, the “background AMC release relative to Hb reacted with AMC alone” value with Trypsin (full labeling procedure with NaCNBH3) was “one-sixth”. The “variation of trypsin-induced release of AMC on storage” value in the data set with Trypsin (setting [6]) is given as “less than 15%”. Besides, the “sensitivity of proteolytic measurement versus [3H]Hb” value with purified 20S proteasome (1 μg/ml purified 20S proteasome) is on record as “broadly comparable sensitivity”. The “increase in susceptibility to proteasomal degradation” value with purified 20S proteasome is “more than 300 fold”. For the same molecule, in the data set with purified 20S proteasome, the “substrate for the purified proteasome” value is “rather poor substrates”.

As to “SOD-AMC: AMC-labeled superoxide dismutase”, in the data set with Trypsin, the “substrate for proteolysis by trypsin” value was “effective and sensitive substrates”.

B1: catalase: catalase with the AMC fluorophore bound (AMC-labeled catalase) (conjugate, UniProt P00432 2-527, looked up)
Catalase: ADNRDPASDQMKHWKEQRAAQKPDVLTTGGGNPVGDKLNSLTVGPRGPLLVQDVVFTDEMAHFDRERIPERVVHAKGAGAFGYFEVTHDITRYSKAKVFEHIGKRTPIAVRFSTVAGESGSADTVRDPRGFAVKFYTEDGNWDLVGNNTPIFFIRDALLFPSFIHSQKRNPQTHLKDPDMVWDFWSLRPESLHQVSFLFSDRGIPDGHRHMNGYGSHTFKLVNANGEAVYCKFHYKTDQGIKNLSVEDAARLAHEDPDYGLRDLFNAIATGNYPSWTLYIQVMTFSEAEIFPFNPFDLTKVWPHGDYPLIPVGKLVLNRNPVNYFAEVEQLAFDPSNMPPGIEPSPDKMLQGRLFAYPDTHRHRLGPNYLQIPVNCPYRARVANYQRDGPMCMMDNQGGAPNYYPNSFSAPEHQPSALEHRTHFSGDVQRFNSANDDNVTQVRTFYLKVLNEEQRKRLCENIAGHLKDAQLFIQKKAVKNFSDVHPEYGSRIQALLDKYNEEKPKNAVHTYVQHGSHLSAREKANL
modifications: AMC fluorophore label
As to B1, the “substrate for proteolysis by trypsin” value with Trypsin is “effective and sensitive substrates”.
